Results as given in article PMC2275666 (The EMBO Journal, 2008).
Positions count from the first letter of the chain named.

Assays:
Experiment in all cases: pull-down
6H–hTFIIEα V390K = biological target: T1, 6H–hTFIIEα V390K (human, UniProt P29083 1-439, V390K)
T1 sequence: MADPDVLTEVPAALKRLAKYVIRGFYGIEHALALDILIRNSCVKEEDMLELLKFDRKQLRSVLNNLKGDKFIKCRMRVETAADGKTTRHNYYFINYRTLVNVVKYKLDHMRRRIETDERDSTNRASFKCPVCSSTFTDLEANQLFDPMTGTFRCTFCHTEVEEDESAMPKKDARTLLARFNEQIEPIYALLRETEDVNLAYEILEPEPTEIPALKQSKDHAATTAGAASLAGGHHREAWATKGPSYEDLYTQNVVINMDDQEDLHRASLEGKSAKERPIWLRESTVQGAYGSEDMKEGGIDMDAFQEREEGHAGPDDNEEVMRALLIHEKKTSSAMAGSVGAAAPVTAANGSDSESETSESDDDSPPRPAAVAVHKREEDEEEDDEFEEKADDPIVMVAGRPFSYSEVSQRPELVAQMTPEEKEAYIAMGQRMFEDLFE

6H–hTFIIEα F387E = biological target: T2, 6H–hTFIIEα F387E (human, UniProt P29083 1-439, F387E)
T2 sequence: T1 sequence with F387E, K390V

6H–hTFIIEα S365A = biological target: T3, 6H–hTFIIEα S365A (human, UniProt P29083 1-439, S365A)
T3 sequence: T1 sequence with S365A, K390V

[1] = biological target: T4, 6H–hTFIIEα wild type (full-length hTFIIEα) (human, UniProt P29083 1-439)
T4 sequence: T1 sequence with K390V

6H–hTFIIEα V390A = biological target: T5, 6H–hTFIIEα V390A (human, UniProt P29083 1-439, V390A)
T5 sequence: T1 sequence with K390A

Measured: binding result

B1: GST-tagged hTFIIEβ (natural protein)
chain: MDPSLLRERELFKKRALSTPVVEKRSASSESSSSSSKKKKTKVEHGGSSGSKQNSDHSNGSFNLKALSGSSGYKFGVLAKIVNYMKTRHQRGDTHPLTLDEILDETQHLDIGLKQKQWLMTEALVNNPKIEVIDGKYAFKPKYNVRDKKALLRLLDQHDQRGLGGILLEDIEEALPNSQKAVKALGDQILFVNRPDKKKILFFNDKSCQFSVDEEFQKLWRSVTVDSMDEEKIEEYLKRQGISSMQESGPKKVAPIQRRKKPASQKKRRFKTHNEHLAGVLKDYSDITSSK
binds: all assays above
